B1: RAB40B (parent)
chain: YSLTTSSTHKRSSLRKVKLVRPPQ
B2: APBB1IP (parent)
chain: PPEPLSQVSMWDQRWQDHQPLLPI
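Also: lentivirally expressed fusions sorted by FACS into six bins by GFP to DsRed ratio, PSI derived from sequencing read proportions per bin multiplied by bin number.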

The variants in the first data set derive from B1. The data set can be described thus: protein stability index of a GFP-peptide fusion (GPS, HEK-293T) (PSI 1-6); higher = more stable. Conditions: c terminus: a fixed tail appended.
For the variant YSLTTSSTHKRSSLRKVKLVRWPQ [P22W], the protein stability index was 1.94.
With YSLTTSSTHKRSSLRKVKLVRYPQ [P22Y], the protein stability index came out at 2.84.
With YSLTTSSTHKRSSLRKVKLVRPPN [Q24N], the protein stability index is 2.96.
In the case of YSLTTSSTHKRSSLRKVKLVRPPE [Q24E], the protein stability index was found to be 3.06.
Still for that read-out and setting: the figure for YSLTTSSTHKRSSLRKVKLVRPPM [Q24M] is 2.49; for YSLTTSSTHKRSSLRKVKLVRPPV [Q24V] it is 2.31.
Still for that read-out and setting: the value for YSLTTSSTHKRSSLRKVKLVRPPR [Q24R] was 2.62; that for YSLTTSSTHKRSSLRKVKLVRPPY [Q24Y] was 3.09; that for YSLTTSSTHKRSSLRKVKLVRPPC [Q24C] was 2.45.
As to YSLTTSSTHKRSSLRKVKLVRPPW [Q24W], the protein stability index came to 2.68.
The same measure, in the same setting: the figure for YSLTTSSTHKRSSLRKVKLVRPPG [Q24G] is 2.82; for YSLTTSSTHKRSSLRKVKLVRPPL [Q24L] it is 2.86.
Still for that read-out and setting: the value for YSLTTSSTHKRSSLRKVKLVRPPA [Q24A] was 2.53; that for YSLTTSSTHKRSSLRKVKLVRPPI [Q24I] was 2.22; that for YSLTTSSTHKRSSLRKVKLVRPPF [Q24F] was 2.53.
Regarding YSLTTSSTHKRSSLRKVKLVRPPK [Q24K], the protein stability index worked out at 2.75.
YSLTTSSTHKRSSLRKVKLVRPPH [Q24H]: the protein stability index turned out to be 3.12.
The same measure, in the same setting: the value for YSLTTSSTHKRSSLRKVKLVRPPT [Q24T] was 3.
YSLTTSSTHKRSSLRKVKLVRPPD [Q24D]: the protein stability index was determined as 3.42.
Still for that read-out and setting: the value for YSLTTSSTHKRSSLRKVKLVRPPS [Q24S] was 2.76; that for YSLTTSSTHKRSSLRKVKLVRPPP [Q24P] was 3.21.
On the same count and under the same terms, the figure for YSLTTSSTHKRSSLRKVKLVRPYQ [P23Y] is 3.79; for YSLTTSSTHKRSSLRKVKLVRPNQ [P23N] it is 2.96; for YSLTTSSTHKRSSLRKVKLVRPFQ [P23F] it is 2.6.
Take YSLTTSSTHKRSSLRKVKLVRPDQ [P23D]: the protein stability index worked out at 3.2.
Same read-out and setting: the value for YSLTTSSTHKRSSLRKVKLVRPCQ [P23C] was 2.73; that for YSLTTSSTHKRSSLRKVKLVRPIQ [P23I] was 2.82.
Same read-out and setting: the value for YSLTTSSTHKRSSLRKVKLVRPGQ [P23G] was 2.69; that for YSLTTSSTHKRSSLRKVKLVRPRQ [P23R] was 3.33; that for YSLTTSSTHKRSSLRKVKLVRPAQ [P23A] was 3.37.
On the same count and under the same terms, the figure for YSLTTSSTHKRSSLRKVKLVRPSQ [P23S] is 3.25; for YSLTTSSTHKRSSLRKVKLVRPVQ [P23V] it is 3.02; for YSLTTSSTHKRSSLRKVKLVRPMQ [P23M] it is 2.8.
YSLTTSSTHKRSSLRKVKLVRPQQ [P23Q]: the protein stability index is 3.08.
For the variant YSLTTSSTHKRSSLRKVKLVRPLQ [P23L], the protein stability index was found to be 2.3.
YSLTTSSTHKRSSLRKVKLVRPHQ [P23H]: the protein stability index stood at 3.01.
The same measure, in the same setting: the value for YSLTTSSTHKRSSLRKVKLVRPEQ [P23E] was 3.1; that for YSLTTSSTHKRSSLRKVKLVRPTQ [P23T] was 3.62; that for YSLTTSSTHKRSSLRKVKLVRPWQ [P23W] was 2.04.
Same read-out and setting: the value for YSLTTSSTHKRSSLRKVKLVRPKQ [P23K] was 3.25.

In the next data set the parent is B2. Described as above. The conditions noted are these: c terminus: a fixed tail appended.
PPEPLSQVSMWDQRWQDIQPLLPI [H18I]: the protein stability index worked out at 2.69.
The same measure, in the same setting: the figure for PPEPLSQVSMWDQRWQDFQPLLPI [H18F] is 2.4; for PPEPLSQVSMWDQRWQDKQPLLPI [H18K] it is 3.1; for PPEPLSQVSMWDQRWQDVQPLLPI [H18V] it is 2.83.
On the same count and under the same terms, the figure for PPEPLSQVSMWDQRWQDPQPLLPI [H18P] is 3.34; for PPEPLSQVSMWDQRWQDNQPLLPI [H18N] it is 2.97.
Still for that read-out and setting: the figure for PPEPLSQVSMWDQRWQDRQPLLPI [H18R] is 2.74; for PPEPLSQVSMWDQRWQDHQPLLPH [I24H] it is 3.58; for PPEPLSQVSMWDQRWQDHQPLLPP [I24P] it is 3.79.
With PPEPLSQVSMWDQRWQDHQPLLPL [I24L], the protein stability index came to 3.26.
Still for that read-out and setting: the value for PPEPLSQVSMWDQRWQDHQPLLPS [I24S] was 3.55; that for PPEPLSQVSMWDQRWQDHQPLLPD [I24D] was 4.43.
On the same count and under the same terms, the value for PPEPLSQVSMWDQRWQDHQPLLPQ [I24Q] was 3.93; that for PPEPLSQVSMWDQRWQDHQPLLPG [I24G] was 4.44.
Still for that read-out and setting: the figure for PPNPLSQVSMWDQRWQDHQPLLPI [E3N] is 3.56; for PPVPLSQVSMWDQRWQDHQPLLPI [E3V] it is 3.46; for PPKPLSQVSMWDQRWQDHQPLLPI [E3K] it is 3.84.
Take PPDPLSQVSMWDQRWQDHQPLLPI [E3D]: the protein stability index was 3.34.
On the same count and under the same terms, the value for PPSPLSQVSMWDQRWQDHQPLLPI [E3S] was 3.01; that for PPHPLSQVSMWDQRWQDHQPLLPI [E3H] was 2.74.
On the same count and under the same terms, the value for PPAPLSQVSMWDQRWQDHQPLLPI [E3A] was 2.87; that for PPCPLSQVSMWDQRWQDHQPLLPI [E3C] was 2.48.
Turning to PMEPLSQVSMWDQRWQDHQPLLPI [P2M], the protein stability index came to 2.38.
Still for that read-out and setting: the figure for PCEPLSQVSMWDQRWQDHQPLLPI [P2C] is 2.44; for PSEPLSQVSMWDQRWQDHQPLLPI [P2S] it is 2.83.
As for PPEPLSQVSMWDQRWQPHQPLLPI [D17P], the protein stability index is 3.23.
Still for that read-out and setting: the figure for PPEPLSQVSMWDQRWQGHQPLLPI [D17G] is 2.81; for PPEPLSQVSMWDQRWQIHQPLLPI [D17I] it is 2.57.
The same measure, in the same setting: the figure for PPEPLSQVSMWDQVWQDHQPLLPI [R14V] is 2.92.
Same read-out and setting: the value for PPEPLSQVSMWDQDWQDHQPLLPI [R14D] was 3.59.
Turning to PPEPLSQVSMWDQLWQDHQPLLPI [R14L], the protein stability index amounted to 3.01.
Regarding PPEPLSQVSMWDQIWQDHQPLLPI [R14I], the protein stability index came to 3.14.
Still for that read-out and setting: the value for PPEPLSQVSMWDQFWQDHQPLLPI [R14F] was 2.86; that for PPEPLSQVSMWDQWWQDHQPLLPI [R14W] was 3.29; that for PPEPLSQVSMWDQCWQDHQPLLPI [R14C] was 2.79.
On the same count and under the same terms, the value for PPEPLSQVSMWDVRWQDHQPLLPI [Q13V] was 2.49; that for PPEPLSQVSMWDHRWQDHQPLLPI [Q13H] was 2.79; that for PPEPLSQVSMWDGRWQDHQPLLPI [Q13G] was 2.63.
Still for that read-out and setting: the figure for PPEPLSQVSMWDNRWQDHQPLLPI [Q13N] is 3.5; for PPEPLSQVSMWDRRWQDHQPLLPI [Q13R] it is 2.6.
Take PPEPLSQVSMWDTRWQDHQPLLPI [Q13T]: the protein stability index was 2.78.
The same measure, in the same setting: the value for PPEPLSQVSMWVQRWQDHQPLLPI [D12V] was 2.23.
Same read-out and setting: the value for PPEPLSQVSMWTQRWQDHQPLLPI [D12T] was 3.07; that for PPEPLSQVSMWRQRWQDHQPLLPI [D12R] was 2.9; that for PPEPLSQVSMWGQRWQDHQPLLPI [D12G] was 2.15.
Turning to PPEPLSQVSMWKQRWQDHQPLLPI [D12K], the protein stability index turned out to be 3.37.
The same measure, in the same setting: the figure for PPEPLSQVSMWYQRWQDHQPLLPI [D12Y] is 2.31; for PPEPLDQVSMWDQRWQDHQPLLPI [S6D] it is 3.45.
Still for that read-out and setting: the value for PPEPLRQVSMWDQRWQDHQPLLPI [S6R] was 3.36; that for PPEPLFQVSMWDQRWQDHQPLLPI [S6F] was 2.23; that for PPEPLIQVSMWDQRWQDHQPLLPI [S6I] was 2.71.
PPEPLPQVSMWDQRWQDHQPLLPI [S6P]: the protein stability index turned out to be 3.65.
The same measure, in the same setting: the value for PPEPLMQVSMWDQRWQDHQPLLPI [S6M] was 2.82; that for PPEPLSQMSMWDQRWQDHQPLLPI [V8M] was 3.22.

For the origin of these results see the supplement of paper PMC10567573.
